Measured values published in US9173950B2, “Vitamin D-ghrelin conjugates” (Extend Biosciences, Inc., priority 2012, dated 2015).
Like-named read-outs stand apart in the source and are kept apart here.

Assays:
[1] = human, in vivo; cited from earlier work
[2] = Pharmacokinetics of rGhrelin and rGhrelin-carrier conjugate after IV injection, plasma ELISA; type: in vivo, Sprague Dawley rats; settings: 0.1 mg/kg IV
Description: Pharmacokinetics of rGhrelin (SEQ ID NO:6) or the rGhrelin-carrier conjugate was studied in Sprague Dawley rats. Briefly, 0.1 mg/kg of each molecule was injected separately into the rats by intravenous (IV) injection. Samples of plasma were collected at 30 mins, 60 mins, 120 mins, 240 mins, 360 mins, 24 hrs and 48 hrs. Samples were analyzed using a commercial ELISA kit validated for analyzing rGhrelin from rat plasma (Millipore, Cat. #EZRGRT-91K). […] Thus, ghrelin in a conjugated form is a useful therapeutic for the treatment of ghrelin-responsive diseases such as cachexia, anorexia and frailty in the elderly.

GHS-R = target: T1, GHS-R (Homo sapiens, UniProt Q92847); assay: Cell-based ghrelin receptor agonist assay, calcium flux (FLIPR) in GHS-R-expressing CHO-K1 cells; settings: in the presence of 10% serum that contains DBP
T1 construct: host or cells: CHO-K1
Description: The test compounds were added to GHS-R-expressing CHO-K1 cell cultures. […] The activity was measured by a calcium flux-based assay developed by GenScript USA Inc. for the FLIPR™ (Fluorescence Imaging Plate Reader) high-throughput cellular screening instrument.
CHO-K1 cells expressing GHS-R were cultured in Ham's F12 supplemented with 10% fetal bovine serum, 500 mg/mL G418 and were passaged in order to maintain optimal cell health. The cells were seeded in a 384-well black-wall, clear-bottom plate at a density of 20,000 cells per well in 20 μL of growth medium 18 hours prior to the assay and maintained at 37° C./5% CO2. […] The intracellular calcium levels in the cells were measured for 20 seconds using the FLIPR™ instrument prior to addition of the test articles. […] Changes in intracellular calcium levels were measured for an additional 100 sec (21 to 120 seconds).
The average value of the 20 second reading (1 to 20 seconds) was calculated as the baseline reading and the relative fluorescent units (ΔRFU) intensity values were calculated with the maximal fluorescent units (21 to 120 seconds) subtracting the average value of baseline reading. […]
The % activation of compound was calculated using the following equation: % activation=(ΔRFUCompound−ΔRFUBackground)/(ΔRFUAgonist control−ΔRFUBackground)}*100% activation was then plotted as a function of the log of the cumulative doses of compounds. […]

[3] = Pharmacokinetics of FGF21 and FGF21-carrier conjugate after SC injection, plasma ELISA; type: in vivo, Sprague Dawley rats; settings: 0.1 mg/kg SC
Description: Pharmacokinetics of FGF21 (SEQ ID NO:3) or the FGF21-carrier conjugate was studied in Sprague Dawley rats. Briefly, 0.1 mg/kg of each molecule was injected separately into the rats by SC injection. Samples of plasma were collected at 30 mins, 60 mins, 120 mins, 240 mins, 360 mins, 24 hrs and 48 hrs. Samples were analyzed using a commercial ELISA kit validated for FGF21 (Millipore, Cat. #EZHFGF21-19K).

T1 sequence (Q92847 whole entry, species assumed): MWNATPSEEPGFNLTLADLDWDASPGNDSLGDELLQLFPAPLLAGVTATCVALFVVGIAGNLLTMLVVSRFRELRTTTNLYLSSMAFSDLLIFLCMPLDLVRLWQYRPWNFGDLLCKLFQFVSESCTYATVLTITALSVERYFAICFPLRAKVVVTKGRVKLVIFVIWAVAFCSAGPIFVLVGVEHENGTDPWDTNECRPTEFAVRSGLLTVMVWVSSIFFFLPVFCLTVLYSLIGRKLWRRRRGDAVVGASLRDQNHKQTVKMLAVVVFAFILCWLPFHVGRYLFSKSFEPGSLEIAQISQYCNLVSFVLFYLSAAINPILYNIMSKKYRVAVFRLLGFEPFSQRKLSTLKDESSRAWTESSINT

Molecule: CCCCCCCC(=O)OC[C@H](NC(=O)[C@H](CO)NC(=O)CN)C(=O)N[C@@H](Cc1ccccc1)C(=O)N[C@@H](CC(C)C)C(=O)N[C@@H](CO)C(=O)N1CCC[C@H]1C(=O)N[C@@H](CCC(=O)O)C(=O)N[C@@H](Cc1cnc[nH]1)C(=O)N[C@@H](CCC(N)=O)C(=O)N[C@@H](CCCNC(=N)N)C(=O)N[C@H](C(=O)N[C@@H](CCC(N)=O)C(=O)N[C@@H](CCC(N)=O)C(=O)N[C@@H](CCCNC(=N)N)C(=O)N[C@@H](CCCCN)C(=O)N[C@@H](CCC(=O)O)C(=O)N[C@@H](CO)C(=O)N[C@@H](CCCCN)C(=O)N[C@@H](CCCCN)C(=O)N1CCC[C@H]1C(=O)N1CCC[C@H]1C(=O)N[C@@H](C)C(=O)N[C@@H](CCCCN)C(=O)N[C@@H](CC(C)C)C(=O)N[C@@H](CCC(N)=O)C(=O)N1CCC[C@H]1C(=O)N[C@@H](CCCNC(=N)N)C(=O)O)C(C)C [ghrelin]
- half-life [1]: 11 min

Molecule: CCCCCCCC(=O)OC[C@H](NC(=O)[C@H](CO)NC(=O)CN)C(=O)N[C@@H](Cc1ccccc1)C(=O)N[C@@H](CC(C)C)C(=O)N[C@@H](CO)C(=O)N1CCC[C@H]1C(=O)N[C@@H](CCC(=O)O)C(=O)N[C@@H](Cc1c[nH]cn1)C(=O)N[C@@H](CCC(N)=O)C(=O)N[C@@H](CCCCN)C(=O)N[C@@H](C)C(=O)N[C@@H](CCC(N)=O)C(=O)N[C@@H](CCC(N)=O)C(=O)N[C@@H](CCCNC(=N)N)C(=O)N[C@@H](CCCCN)C(=O)N[C@@H](CCC(=O)O)C(=O)N[C@@H](CO)C(=O)N[C@@H](CCCCN)C(=O)N[C@@H](CCCCN)C(=O)N1CCC[C@H]1C(=O)N1CCC[C@H]1C(=O)N[C@@H](C)C(=O)N[C@@H](CCCCN)C(=O)N[C@@H](CC(C)C)C(=O)N[C@@H](CCC(N)=O)C(=O)N1CCC[C@H]1C(=O)N[C@@H](CCCNC(=N)N)C(=O)N[C@@H](CS)C(=O)O [rGhrelin, reference compound]
- half-life ([2]; rat, in vivo, Sprague Dawley rats, plasma, read-out: half-life (WinNonLin) (converted)): 22.2 min

Molecule: rGhrelin-carrier conjugate: Rat ghrelin peptide (SEQ ID NO:6) conjugated via free cysteine to the Vitamin D3-PEG-maleimide carrier of Example 1 (GSSFLSPEHQKAQQRKESKKPPAKLQPRC; Vitamin D3-PEG-maleimide carrier)
- interference in receptor binding and activation (GHS-R): No interference
- half-life (WinNonLin) ([2]; Sprague Dawley rats, plasma): 480 min
- improvement in half-life vs rGhrelin ([2]; rats): 22 fold

B1: FGF21-carrier conjugate: Modified FGF21 (SEQ ID NO:3) conjugated through its free cysteine to the Vitamin D3-PEG-maleimide carrier of Example 1 (conjugate)
chain: MGSHHHHHHSSGENLYFQGHPCPDSSPLLQFGGQVRQRYLYTDDAQQTEAHLEIREDGTVGGAADQSPESLLQLKALKPGVIQILGVKTSRFLCQRPDGALYGSLHFDPEACSFRELLLEDGYNVYQSEAHGLPLHLPGNKSPHRDPAPRGPARFLPLPGLPPALPEPPGILAPQPPDVGSSDPLSMVEPSQGRSPSYASP
modifications: Vitamin D3-PEG-maleimide carrier
- area under the curve (AUC) ([3]; Sprague Dawley rats, plasma): 1047.98 ng·h/mL
- average Cmax ([3]; Sprague Dawley rats, plasma): 143.526 ng/mL
- increase in bioavailability (ratio of average Cmax, conjugate vs FGF21) ([3]; rats): 380 fold
- increase in drug exposure (ratio of mean AUC, conjugate vs FGF21) ([3]; rats): 675 fold
